Data as given in patent US8624002B2, “Prostaglandin E2 binding proteins and uses thereof” (AbbVie, Inc., priority 2008, dated 2014).

What was measured:
^3H-PGE2 ELISA (binding) = test: ^3H-PGE2 ELISA (binding)
Method: Alternatively, prostaglandin binding was determined using a ^3H-PGE2 ELISA. Plates were coated at 50 μL/well with 5 μg/ml of goat anti-human IgG (Fc) (Thermo Scientific # 31170, Hudson, N.H.) or goat anti-mouse IgG (Fc) (Thermo Scientific # 31125, Hudson, N.H.) in PBS and incubated overnight at 4° C. The following day, plates were flicked and blotted dry. Plates were blocked with 200 μL/well of Superblock (Thermo Scientific # 37515, Hudson, N.H.) for 1 hour at room temperature. Plates were flicked and blotted dry. Monoclonal antibodies were diluted to 0.04 μg/ml in phosphate buffer solution with Tween 20 (PBST) (Abbott Bioresearch Center, Worcester, Mass.) and 10% Superblock and 50 μL of each antibody was added to each well of the pre-blocked ELISA plate at 2 ng/well and incubated for 1 hour at room temperature. Wells were washed 3 times with PBS+0.1% Tween-20. A serial 3-fold titration of ^3H-PGE2 (Perkin Elmer # NET-428, Waltham, Mass.) was prepared in PBST/10% Superblock. Fifty microliters of the ^3H-PGE2 solution was added to each well of the plate and incubated for 1 hour at room temperature. […] Plates were read using a TopCount reader (Perkin Elmer, Waltham, Mass.) with a 5 minute count delay. An EC50 number was determined using GraphPad Prism 5 (GraphPad Software, La Jolla, Calif.).

[1] = system: PGE2 induced Ca++ influx in HEK293 Gα16 cells stably transfected with human EP4 receptor; test: EP4 bioassay: PGE2 induced Ca++ flux (FLIPR); assay type: cell-based; conditions: PGE2 25 pm; read-out: IC50 (pM) @ PGE2 25 pm Cellular Potency in EP4 assay
Method: The ability of anti-PGE2 antibody to inhibit cellular response of PGE2 in vitro was determined in a Ca^++ flux assay in HEK293 Gα16 cells (Abbott Bioresearch Center, Worcester, Mass.) stably transfected with human EP4 receptor. In brief, an expression plasmid encoding one of the four human PGE2 receptors, EP4, and an expression plasmid encoding Gα16, were co-transfected into human embryonic kidney cell line 293 cells (ATCC# CRL1573, Manassas, Va.). The stable clones co-expressing both human EP4 and Gα16 protein were selected using standard methods (Joseph Sambrook and David W. Russell. Molecular Cloning: A Laboratory Manual Publisher. Published by Cold Spring Harbor Laboratory Press, 2001) and used for the EP4 bioassay. The HEK293 Gα16 cells were plated in black/clear poly-D-lysine plates (Corning #3667, Corning, N.Y.) and incubated with a Ca^++-sensitive dye (Molecular Devices, Sunnyvale, Calif.) for 90 minutes. Stock PGE2 (in 200 proof ethanol) was diluted with FLIPR buffer [containing 1×HBSS (Invitrogen Carlsbad, Calif.), 20 mM HEPES (Invitrogen Carlsbad, Calif.), 0.1% BSA (Sigma, St. Louis, Mo.) and 2.5 mM Probenecid (Sigma, St. Louis, Mo.)]. Anti-PGE2 antibodies or isotype matched control antibodies were also pre-diluted in FLIPR buffer. 25 μl of PGE2 or pre-incubated PGE2/antibody mixture was added to the wells pre-plated with cells. The dose response of PGE2 was determined on a serial titration of PGE2 and using FLIPR1 or Tetra (Molecular Devices, Sunnyvale, Calif.) and EC50 was determined using GraphPad Prism 5 (GraphPad Software, La Jolla, Calif.). […] Ca^++ flux was monitored using FLIPR1 and data was analyzed using GraphPad Prism 5 (GraphPad Software, La Jolla, Calif.).

[2] = Accelerated stability screening monitored by SEC; assay type: physicochemical; conditions: for Aggregate (%) / Fragment (%) / Monomer (%): SEC
Method: Size exclusion chromatography was used to separate proteins based on size. Proteins are carried in an aqueous mobile phase and through a porous stationary phase resin packed in a column. The retention time in the column is a function of the hydrodynamic size of the protein and the size of the pores in the packed resin bed. Smaller molecules can penetrate into smaller pores in the resin and are retained longer than larger molecules. Upon elution from the column the proteins are detected by UV absorbance. The SEC method used a TSK gel guard (TOSOH Biosciences, Montgomeryville, Pa., cat. no. 08543) and a TSK gel G3000SWxL (TOSOH Biosciences, Montgomeryville, Pa., cat. no. 08541). The mobile phase was 100 mM Na2HPO4, 200 mM Na2SO4, pH 7.0. The flow rate was 0.3 mL/minute. Injection volume was 20 μL of 1 mg/mL sample. The column temperature was room temperature. The autosampler temperature was 2-8° C. The total run time was 50 minutes. The detection was based on UV absorbance at 214 nm wavelength, with band width set at 8 nm, using reference wavelength at 360 nm with band width 100 nm.
(§1) The stability of a series of clones (i.e., anti-PGE2 antibodies) of the parent anti-PGE2 antibody was assessed by using intrinsic thermodynamic clone stability determination using DSC (0.79 mg/mL clone concentration, formulated at pH 6 in a 10 mM citrate, 10 mM phosphate buffer) and by accelerated stability screening (0.79 mg/mL clone concentration, formulated at pH 6 in a 10 mM citrate, 10 mM phosphate buffer, for 7 days at 50° C.) where clone stability was monitored with SEC (Table 15).

[3] = Intrinsic thermodynamic stability by DSC; assay type: physicochemical
Method: The thermal stability of the anti-PGE2 antibodies was assessed using a DSC instrument. The DSC instrument used was an automated VP-DSC equipment with Capillary Cell (Microcal, GE Healthcare Ltd./Microcal, Buckinghamshire, UK). Unfolding of molecules was studied applying a 1° C./minute scan rate over a 25° C.-95° C. temperature range for samples at 1 mg/mL. Additional measurement parameters applied were a fitting period of 16 seconds, a pre-scan wait time of 10 minutes, and measurements were performed in none-feedback mode. Per individual measurement, 420 μL of sample/blank were filled into the DSC measurement sample holder, with a plate fill scheme as provided below. The thermograms obtained were fitted to a non two state model to obtain the midpoint temperatures and enthalpies of the different transitions.
as §1

[4] = Capillary zone electrophoresis; assay type: physicochemical; conditions: running buffer pH 5.5; compared with Hu2B5.2, Hu2B5.4, Hu2B5.6, Hu2B5.8
Excerpt: Capillary zone electrophoresis is a capillary electrophoresis method in which the capillary is filled with buffer and the separation mechanism is based on differences in electrophoretic mobility of the analyte through the buffer. The electrophoretic mobility of a molecule is related to the charge-to-size ratio. A Beckman-Coulter ProteomeLab PA 800 (Beckman Coulter, Fullerton, Calif.) was used for the CZE analysis. A neutral capillary (eCAP neutral, 56 cm total length, 50 μm I. D. Beckman-Coulter, P/N 477441, Fullerton, Calif.) was used. The method used a 30.2 cm capillary with a detection window 20.2 cm from the sample introduction inlet. The running buffer was 100 mM EACA (6-Aminocaproic acid, Sigma A7824-100 G, St. Louis, Mo.) with 0.1% MC (from 1% Methylcellulose solution, Convergent Bioscience, cat# 101876, Toronto, ON, Canada), pH 5.5.

B1: Hu2B5.9: humanized 2B5-8.0; VH SEQ ID NO 76, VL SEQ ID NO 77 (antibody, V domains shown)
VH: EVQLVQSGAEVKKPGASVKVSCKASGYTFTKYWLGWVRQAPGQGLEWMGDIYPGYDYTHYNEKFKDRVTMTTDTSTSTAYMELRSLRSDDTAVYYCARSDGSSTYWGQGTLVTVSS
VL: DIVMTQTPLSLPVTPGEPASISCTSSQNIVHSNGNTYLEWYLQKPGQSPQLLIYKVSNRFSGVPDRFSGSGSGTDFTLKISRVEAEDVGVYYCFQVSHVPYTFGGGTKVEIKR
- IC50 (^3H-PGE2 ELISA (binding)): 704 pM
- IC50 [1]: 125 pM
- monomer levels after 7 days accelerated stability screening ([2]; 7 days at 50° C.): highest monomer levels
- Aggregate (%) ([2]; 7 days storage at 50° C.): 1.9559%
- Fragment (%) ([2]; 7 days storage at 50° C.): 3.4127%
- Monomer (%) ([2]; 7 days storage at 50° C.): 94.6313%
- Fragment (%) ([2]; start of stability study): 2.541%
- Monomer (%) ([2]; start of stability study): 95.6031%
- Aggregate (%) ([2]; start of stability study, 0.79 mg/mL, pH 6): 1.8559%
- Tm1 (° C.) ([3]; 0.79 mg/mL, pH 6, 10 mM citrate, 10 mM phosphate): 73.235 °C
- Tm2 (° C.) ([3]; same buffer): 75.965 °C
- Tm3 (° C.) ([3]; same buffer): 83.04 °C
- migration in capillary zone electrophoresis [4]: migrated more basic
